The values that follow are results of earlier work, collected in publication PMC11949069.

For the data set, the target named is IL-18BPa (Homo sapiens) (UniProt O95998).
Chain of IL-18BPa (Homo sapiens) (O95998 31-194): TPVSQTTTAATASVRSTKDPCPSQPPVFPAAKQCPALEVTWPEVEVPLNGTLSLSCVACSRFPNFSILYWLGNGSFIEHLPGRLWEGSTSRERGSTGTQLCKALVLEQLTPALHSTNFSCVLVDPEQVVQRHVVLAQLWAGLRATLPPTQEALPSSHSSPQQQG

Chain of IL-18 (Q14116 37-193): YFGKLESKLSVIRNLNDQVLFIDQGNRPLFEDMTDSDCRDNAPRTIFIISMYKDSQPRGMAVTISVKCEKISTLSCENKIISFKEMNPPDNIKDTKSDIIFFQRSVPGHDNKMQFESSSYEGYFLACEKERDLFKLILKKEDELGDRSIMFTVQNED

In the case of IL-18 (from UniProt Q14116), the Kd is 0.4 nM.
